Measurements published in article PMC11497264, “SARS‐CoV‐2 Spike Protein‐Derived Cyclic Peptides as Modulators of Spike Interaction with GRP78” (Chembiochem, 2024).
Bridge positions count the residues as written; N and C are the ends.

B1: human glucose-regulated protein GRP78 (natural protein)
chain: not shown
notes: also called heat shock protein A5; HSPA5; source: Escherichia coli, recombinant; bought: Abcam
B2: Pep42, 13-mer cyclopeptide (peptide)
peptide: H-CTVALPGGYVRVC-NH2
modifications: disulfide 1-13
SMILES: CC(C)C[C@@H]1NC(=O)[C@H](C)NC(=O)[C@H](C(C)C)NC(=O)[C@H]([C@@H](C)O)NC(=O)[C@@H](N)CSSC[C@@H](C(N)=O)NC(=O)[C@H](C(C)C)NC(=O)[C@H](CCCNC(=N)N)NC(=O)[C@H](C(C)C)NC(=O)[C@H](Cc2ccc(O)cc2)NC(=O)CNC(=O)CNC(=O)[C@@H]2CCCN2C1=O
notes: source: synthetic peptide (Fmoc SPPS, disulphide cyclisation with DMSO, HPLC purified)

Experiments:
[1] = target: T1, S1 subunit (aa 14-685) of the spike protein of SARS-CoV-2 (SARS-CoV-2, UniProt P0DTC2 14-685); test: SPR; conditions: both partners purified
T1 construct: also called soluble S1; wild-type S1 protein

[2] = target: B1; test: SPR; conditions: both partners purified

Binder: B1
- KD in the presence of 12.5 uM LCP O [1]: 751 nM
- KD in the presence of 12.5 uM LCP W [1]: 137 nM

Binder: B2
- IC50 [2]: 5900 nM
- Kd [2]: 3400 nM
